According to patent US20210079056A1 (Bayer, published 2021):

T1: rat ANP receptor (NPR-A) (rat, UniProt P18910 29-1057)
T1 sequence (looked up): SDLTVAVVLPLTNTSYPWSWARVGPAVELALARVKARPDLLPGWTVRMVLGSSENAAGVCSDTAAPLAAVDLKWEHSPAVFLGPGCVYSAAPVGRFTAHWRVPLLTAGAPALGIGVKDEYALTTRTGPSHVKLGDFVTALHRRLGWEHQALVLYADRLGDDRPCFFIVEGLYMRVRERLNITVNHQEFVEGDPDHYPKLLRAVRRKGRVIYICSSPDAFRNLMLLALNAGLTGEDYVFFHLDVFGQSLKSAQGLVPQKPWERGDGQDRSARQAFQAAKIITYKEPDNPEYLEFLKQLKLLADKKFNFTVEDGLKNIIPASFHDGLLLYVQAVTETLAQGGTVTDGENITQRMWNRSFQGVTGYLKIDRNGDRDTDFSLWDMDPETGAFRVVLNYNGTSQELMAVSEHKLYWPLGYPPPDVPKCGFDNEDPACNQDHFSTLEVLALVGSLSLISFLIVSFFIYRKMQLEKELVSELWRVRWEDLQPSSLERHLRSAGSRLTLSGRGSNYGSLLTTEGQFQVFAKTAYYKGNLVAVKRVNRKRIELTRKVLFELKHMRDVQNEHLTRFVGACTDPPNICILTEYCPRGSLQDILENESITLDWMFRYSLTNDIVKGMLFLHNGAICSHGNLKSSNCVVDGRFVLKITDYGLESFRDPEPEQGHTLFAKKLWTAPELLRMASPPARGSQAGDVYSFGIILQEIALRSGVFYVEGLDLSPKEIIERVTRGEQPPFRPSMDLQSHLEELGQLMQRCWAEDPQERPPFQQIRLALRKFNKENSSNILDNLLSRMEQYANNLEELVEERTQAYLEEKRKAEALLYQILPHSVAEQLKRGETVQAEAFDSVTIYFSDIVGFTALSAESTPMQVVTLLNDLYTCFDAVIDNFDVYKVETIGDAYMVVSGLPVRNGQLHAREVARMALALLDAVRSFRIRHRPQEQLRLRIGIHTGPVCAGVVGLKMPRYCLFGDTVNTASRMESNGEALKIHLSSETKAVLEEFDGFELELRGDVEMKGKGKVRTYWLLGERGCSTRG

T2: rat CNP receptor (NPR-B) (rat, UniProt P16067 17-1047)
T2 sequence (looked up): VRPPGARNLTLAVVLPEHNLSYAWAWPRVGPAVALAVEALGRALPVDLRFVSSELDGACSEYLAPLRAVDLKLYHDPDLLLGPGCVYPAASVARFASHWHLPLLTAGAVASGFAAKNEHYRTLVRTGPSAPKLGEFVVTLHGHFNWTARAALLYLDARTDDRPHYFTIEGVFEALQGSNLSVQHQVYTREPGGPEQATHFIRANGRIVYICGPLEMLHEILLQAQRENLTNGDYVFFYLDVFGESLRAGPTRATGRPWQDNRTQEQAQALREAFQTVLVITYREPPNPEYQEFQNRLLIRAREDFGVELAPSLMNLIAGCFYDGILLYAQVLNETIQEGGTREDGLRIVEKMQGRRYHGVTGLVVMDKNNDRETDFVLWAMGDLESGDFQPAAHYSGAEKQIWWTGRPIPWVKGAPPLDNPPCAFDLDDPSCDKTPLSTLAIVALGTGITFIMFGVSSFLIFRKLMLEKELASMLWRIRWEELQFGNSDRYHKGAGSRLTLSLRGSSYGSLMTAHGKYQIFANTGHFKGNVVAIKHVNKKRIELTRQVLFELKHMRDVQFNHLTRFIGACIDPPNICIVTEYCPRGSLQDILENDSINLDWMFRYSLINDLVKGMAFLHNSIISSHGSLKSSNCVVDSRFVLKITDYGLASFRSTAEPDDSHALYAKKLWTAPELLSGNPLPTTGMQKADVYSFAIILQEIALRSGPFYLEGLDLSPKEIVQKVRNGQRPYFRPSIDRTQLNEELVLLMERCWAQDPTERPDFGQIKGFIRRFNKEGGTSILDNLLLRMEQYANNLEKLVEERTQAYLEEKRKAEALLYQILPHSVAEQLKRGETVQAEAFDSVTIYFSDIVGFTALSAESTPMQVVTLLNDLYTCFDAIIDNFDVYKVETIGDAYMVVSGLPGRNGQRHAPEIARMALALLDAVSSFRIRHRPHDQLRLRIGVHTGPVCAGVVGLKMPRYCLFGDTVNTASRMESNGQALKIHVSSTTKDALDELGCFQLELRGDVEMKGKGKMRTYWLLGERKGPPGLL


Molecular target: T1, rat ANP receptor (NPR-A)
Assay: cell-based or functional assay

Row | EC50, fluorescence of cGMP reporter cells [nM] | Binder
1 | 1200 | TPP-11156 (antibody, human IgG1, lambda) heavy: not shown light: QSVLTQPPSVSGAPGQRVTISCTGSSSNIGAGYDVHWYQQLPGTAPKLLIYGNSNRPSGVPDRFSGSKSGTSASLAITGLQAEDEADYYCQSYDSSLSGVVFGGGTKLTVLGQPKAAPSVTLFPPSSEELQANKATLVCLISDFYPGAVTVAWKADSSPVKAGVETTTPSKQSNNKYAASSYLSLTPEQWKSHRSYSCQVTHEGSTVEKTVAPTECS
2 | 180 | TPP-10992 (antibody, human IgG4 S228P, lambda) heavy: not shown light: QSVLTQPPSVSGAPGQRVTISCTGSSSNIGAGYDVHWYQQLPGTAPKLLIYGNSNRPSGVPDRFSGSKSGTSASLAITGLQAEDEADYYCQSYDSSLSGVVFGGGTKLTVLGQPKAAPSVTLFPPSSEELQANKATLVCLISDFYPGAVTVAWKADSSPVKAGVETTTPSKQSNNKYAASSYLSLTPEQWKSHRSYSCQVTHEGSTVEKTVAPTECS
3 | 2300 | TPP-9902 (antibody) heavy: not shown light: QSVLTQPPSVSGAPGQRVTISCTGSSSNIGAGYDVHWYQQLPGTAPKLLIYGNSNRPSGVPDRFSGSKSGTSASLAITGLQAEDEADYYCQSYDSSLSGVVFGGGTKLTVLGQPKAAPSVTLFPPSSEELQANKATLVCLISDFYPGAVTVAWKADSSPVKAGVETTTPSKQSNNKYAASSYLSLTPEQWKSHRSYSCQVTHEGSTVEKTVAPTECS

Molecular target: T2, rat CNP receptor (NPR-B)
Assay: cell-based or functional assay

Row | EC50, luminescence of cGMP reporter cells [nM] | Binder
4 | 4.1 | TPP-12377 (antibody) heavy: not shown light: QSVLTQPPSVSGAPGQRVTISCTGSSSNIGAGYDVHWYQQLPGTAPKLLIYGNSNRPSGVPDRFSGSKSGTSASLAITGLQAEDEADYYCQSYDSSLSGVVFGGGTKLTVLGQPKAAPSVTLFPPSSEELQANKATLVCLISDFYPGAVTVAWKADSSPVKAGVETTTPSKQSNNKYAASSYLSLTPEQWKSHRSYSCQVTHEGSTVEKTVAPTECS
5 | 5.2 | TPP-9465 (antibody) heavy: not shown light: QSVLTQPPSVSGAPGQRVTISCTGSSSNIGAGYDVHWYQQLPGTAPKLLIYGNSNRPSGVPDRFSGSKSGTSASLAITGLQAEDEADYYCQSYDSSLSGVVFGGGTKLTVLGQPKAAPSVTLFPPSSEELQANKATLVCLISDFYPGAVTVAWKADSSPVKAGVETTTPSKQSNNKYAASSYLSLTPEQWKSHRSYSCQVTHEGSTVEKTVAPTECS
6 | 10 | TPP-12897 (antibody) heavy: not shown light: QSVLTQPPSVSGAPGQRVTISCTGSSSNIGAGYDVHWYQQLPGTAPKLLIYGNSNRPSGVPDRFSGSKSGTSASLAITGLQAEDEADYYCQSYDSSLDGVVFGGGTKLTVLGQPKAAPSVTLFPPSSEELQANKATLVCLISDFYPGAVTVAWKADSSPVKAGVETTTPSKQSNNKYAASSYLSLTPEQWKSHRSYSCQVTHEGSTVEKTVAPTECS
